One substance from paper PMC11121168 can be followed below.

The subject of this series is CC[C@H](NC(=O)OC(C)(C)C)C(=O)N[C@H](C(=O)N[C@@H](CC(C)C)C(=O)N[C@@H](CCC(N)=O)C(=O)Nc1ccc2c(C)cc(=O)oc2c1)C(C)(C)C. Put plainly: purified protein, by the assay type. The following applies: pH 7.2; 37.0 °C.

“C-terminally His-tagged SARS-CoV-2 Mpro (Severe acute respiratory syndrome coronavirus 2)”: the Km amounted to 85.2 ± 5.6 µM.

One may read the Km as the substrate concentration at which the rate is half of its maximum.
